{
  "source": "patent US10323078B2",
  "about": "“Isolated peptides and fragments thereof from fibrinogen for use as drugs, particularly in skin inflammatory diseases” (Universite Paris Descartes, priority 2015, dated 2019)",
  "molecules": {"B1": {"name": "MKRMVSWSFHKLKTMKHLLLLLLCVFLVKSQGVNDNEEGFFSARGHRPLDKKREEAPSLRPAPPPISGGGYRARPAKAAATQKKVERKAPDAGGCLHADPDLGVLC (protein)", "chain": "MKRMVSWSFHKLKTMKHLLLLLLCVFLVKSQGVNDNEEGFFSARGHRPLDKKREEAPSLRPAPPPISGGGRARPAKAAATQKKVERKAPDAGGCLHADPDLGVLCMKRMVSWSFHKLKTMKHLLLLLLCVFLVKSQGVNDNEEGFFSARGHRPLDKKREEAPSLRPAPPPISGGGYRARPAKAAATQKKVERKAPDAGGCLHADPDLGVLC", "modifications": "GST fusion; fragment Fg1", "notes": "fragment of Bß chain of human fibrinogen having 106 amino acids; recombinant GST-fused peptide expressed in E. coli"}},
  "assay_type_in_all_cases": "cell-based, human",
  "key": {"[1]": {"system": "keratinocytes and fibroblasts", "assay": "IL-8 production by cells stimulated with P. acnes, overall statement", "conditions": "the 3 bacterial tested strains", "procedure": "(§1) For experiences of stimulation with P. acnes, cells were incubated with the P. acnes suspension adjusted at the appropriate concentration, pre-treated for 1 h at 37° C. or not with fibrinogen recombinant peptides Fg1 and Fg2 at the concentrations 0.87, 1.75, 3.5 or 7 μM for the desired period of time at 37° C. in 5% CO2.\n(§2) Human IL-1ß, IL-8, IL-12, hBD-2, and TNF-α protein concentration was measured in the supernatants of stimulated cells using various ELISA Set kits (Ready-Set-Go kit from eBioscience for acne experiments, and for psoriasis experiments the Duo set IL-8 kit from R&D Systems and the BD-2 Human Development (hBD-2) from Peprotech) according to the manufacturer's instructions. We used serial dilutions of recombinant human IL-1ß, IL-8, IL-12 and TNF-α for standard curve. The optical density was determined at 450 nm at a wavelength correction of 540 nm.\n(§3) To assess the efficacy of Fg1 recombinant peptide, the production of O2^∘− and H2O2 by HaCaT cells NHDK, THP-1, MRC5 and HDF stimulated by pretreated P. acnes strains 6919, RON and PIE was measured. The amount of ROS produced was compared to that produced by the stimulated cells with untreated bacteria. Production baseline was obtained by measuring ROS on unstimulated cells. The production of IL-1ß, IL-8, IL-12 and TNF-α was also measured in all conditions cited above. […]"}, "HDF cells": {"system": "HDF cells", "assay": "IL-8 production by P. acnes-stimulated HDF (ELISA)", "conditions": "0.87 to 7 μM", "procedure": "as §1, §2\n(§4) To assess the efficacy of Fg1 recombinant peptide, the production of O2^∘− and H2O2 by HaCaT cells NHDK, THP-1, MRC5 and HDF stimulated by pretreated P. acnes strains 6919, RON and PIE was measured. The amount of ROS produced was compared to that produced by the stimulated cells with untreated bacteria. Production baseline was obtained by measuring ROS on unstimulated cells. The production of IL-1ß, IL-8, IL-12 and TNF-α was also measured in all conditions cited above. The measurement of the production of ROS is performed by spectrofluorimetry in the presence of specific fluorochromes directly on the monolayer cell. Measurement of cytokine production was performed in parallel on the cell culture supernatant.\n(§5) Two sets of experiments were implemented: 1) The cells were stimulated (18 h at 37° C.) by P. acnes strains previously pretreated with Fg1 and Fg2 peptides at the final concentrations ranging from 0.87 to 7 μM for 1 h at 37° C.; and 2) The cells were pretreated first with Fg1 and Fg2 peptides at the final concentrations ranging from 0.87 to 7 μM for 24 h at 37° C. and stimulated (18 h at 37° C.) by P. acnes strains."}, "NHDK cells [2]": {"system": "NHDK cells", "assay": "IL-12 production by P. acnes-stimulated NHDK (ELISA)", "conditions": "P. acnes RON, set I, bacteria first pretreated, 0.87 to 7 μM", "procedure": "as §1, §2, §3"}, "[3]": {"system": "monocytes and fibroblasts", "assay": "TNF-α production by cells stimulated with P. acnes, overall statement", "conditions": "the 3 bacterial tested strains", "procedure": "as §1, §2, §3"}, "NHDK cells [4]": {"system": "NHDK cells", "assay": "H2O2 production by P. acnes-stimulated NHDK", "conditions": "0.87 to 7 μM", "procedure": "as §1\n(§6) All cells lines (5·10^4 to 10^5 cells/well) were seeded in 96-well plates (Corning Costar, Brumath, France) and treated as previously described. After stimulation, cells were washed three times in PBS and incubated with 100 μl per wells of 5 μM DHE (for determination of O2^●−) or 5 μM H2-DCFDA (for determination of H2O2) for 30 min as described previously and fluorescence intensity was recorded every hour over a period of 5 h. Fluorescence excitation/emission maxima were for DHE: 480/610 nm and for H2-DCFDA: 507/525 nm. At the end of the experiment, the number of adherent cells was evaluated by the crystal violet assay as described below. O2^●−, and H2O2 were assayed by spectrofluorimetry on a Fusion spectrofluorimeter (PackardBell, Paris, France). Levels of ROS were calculated in each sample as follows: reactive oxygen species rate (arbitrary units/min/10^6 cells)=(fluorescence intensity [arbitrary units] at T5h—fluorescence intensity [arbitrary units] at To/300 minutes/number of adherent cells as measured by the crystal violet assay, and were expressed as arbitrary unit (A.U.).\nas §4, §5\n(§7) To assess the efficacy of the small Fg1-related peptide, the production of H2O2 by several cell lines (HaCaT, NHDK, THP-1, MRC5 and HDF) stimulated by three P. acnes strains 6919, RON and PIE was measured, in presence or not with the small peptides. The amount of H2O2 produced is compared to that produced by the stimulated cells with untreated bacteria. Production baseline is obtained by measuring H2O2 on unstimulated cells. The measurement of the production of H2O2 is performed by spectrofluorimetry in the presence of specific fluorochromes directly on the monolayer cell.\n(§8) Two sets of experiments have been implemented: • I) The cells are stimulated (18 h at 37° C.) by P. acnes strains previously pretreated with Fg1.1, Fg1.2, Fg1.3, Fg1.4, and Fg1.5 small peptides at the final concentrations ranging from 2.5 to 20 μM for 1 h at 37° C.; • II) The cells are pretreated first with the five small peptides at the final concentrations ranging from 2.5 to 20 μM for 24 h at 37° C. and stimulated (18 h at 37° C.) by P. acnes strains."}, "NHDK cells [5]": {"system": "NHDK cells", "assay": "O2°− production by P. acnes-stimulated NHDK", "conditions": "0.87 to 7 μM", "procedure": "as §1, §6, §4, §5"}, "MRC5 cells": {"system": "MRC5 cells", "assay": "O2°− production by P. acnes-stimulated MRC5", "conditions": "bacteria first pretreated, 0.87 to 7 μM", "procedure": "as §1, §6\nas §4, with “Measurement of cytokine production was performed in parallel on the cell culture supernatant.” left out"}, "ThP1 cells": {"system": "ThP1 cells", "assay": "H2O2 production by P. acnes-stimulated ThP1", "conditions": "0.87 to 7 μM", "procedure": "as §1, §6, §4, §5, §7, §8"}, "[6]": {"conditions": "P. acnes 6919, set I, bacteria first pretreated"}, "[7]": {"conditions": "P. acnes 6919, set II, cells first pretreated"}, "[8]": {"conditions": "P. acnes PIE, set I, bacteria first pretreated"}, "[9]": {"conditions": "P. acnes PIE, set II, cells first pretreated"}, "[10]": {"conditions": "P. acnes RON, set I, bacteria first pretreated"}, "[11]": {"conditions": "P. acnes RON, set II, cells first pretreated"}},
  "data": [
    {"molecule": "B1", "values": [
      {"measurement": "Decrease of the production of IL-8", "setting": "[1]", "result": "dose-response effect on the decrease of the production of IL-8"},
      {"measurement": "Inhibition of Interleukine 8 (IL-8) production", "setting": "HDF cells; [6]", "result": "pos"},
      {"measurement": "Inhibition of Interleukine 8 (IL-8) production", "setting": "HDF cells; [7]", "result": "pos"},
      {"measurement": "Inhibition of Interleukine 8 (IL-8) production", "setting": "HDF cells; [8]", "result": "pos"},
      {"measurement": "Inhibition of Interleukine 8 (IL-8) production", "setting": "HDF cells; [9]", "result": "pos"},
      {"measurement": "Inhibition of Interleukine 8 (IL-8) production", "setting": "HDF cells; [10]", "result": "pos"},
      {"measurement": "Inhibition of Interleukine 8 (IL-8) production", "setting": "HDF cells; [11]", "result": "pos"},
      {"measurement": "Inhibition of Interleukine 12 (IL-12) production", "setting": "NHDK cells [2]", "result": "pos"},
      {"measurement": "Decrease of the production of TNF-α", "setting": "[3]", "result": "dose-response effect on the decrease of the production of TNF-α"},
      {"measurement": "Inhibition of Hydrogen peroxide (H2O2) production", "setting": "NHDK cells [4]; [6]", "result": "pos"},
      {"measurement": "Inhibition of Hydrogen peroxide (H2O2) production", "setting": "NHDK cells [4]; [7]", "result": "pos"},
      {"measurement": "Inhibition of Hydrogen peroxide (H2O2) production", "setting": "NHDK cells [4]; [8]", "result": "pos"},
      {"measurement": "Inhibition of Hydrogen peroxide (H2O2) production", "setting": "NHDK cells [4]; [9]", "result": "pos"},
      {"measurement": "Inhibition of Hydrogen peroxide (H2O2) production", "setting": "NHDK cells [4]; [10]", "result": "pos"},
      {"measurement": "Inhibition of Hydrogen peroxide (H2O2) production", "setting": "NHDK cells [4]; [11]", "result": "pos"},
      {"measurement": "Inhibition of Superoxide anion (O2°−) production", "setting": "NHDK cells [5]; [6]", "result": "pos"},
      {"measurement": "Inhibition of Superoxide anion (O2°−) production", "setting": "NHDK cells [5]; [7]", "result": "pos"},
      {"measurement": "Inhibition of Superoxide anion (O2°−) production", "setting": "NHDK cells [5]; [8]", "result": "pos"},
      {"measurement": "Inhibition of Superoxide anion (O2°−) production", "setting": "NHDK cells [5]; [9]", "result": "pos"},
      {"measurement": "Inhibition of Superoxide anion (O2°−) production", "setting": "NHDK cells [5]; [10]", "result": "pos"},
      {"measurement": "Inhibition of Superoxide anion (O2°−) production", "setting": "NHDK cells [5]; [11]", "result": "pos"},
      {"measurement": "Inhibition of Superoxide anion (O2°−) production", "setting": "MRC5 cells; P. acnes 6919, set I", "result": "pos"},
      {"measurement": "Inhibition of Superoxide anion (O2°−) production", "setting": "MRC5 cells; P. acnes PIE, set I", "result": "pos"},
      {"measurement": "Inhibition of Superoxide anion (O2°−) production", "setting": "MRC5 cells; P. acnes RON, set I", "result": "pos"},
      {"measurement": "Inhibition of Hydrogen peroxide (H2O2) production", "setting": "ThP1 cells; [6]", "result": "pos"},
      {"measurement": "Inhibition of Hydrogen peroxide (H2O2) production", "setting": "ThP1 cells; [7]", "result": "pos"},
      {"measurement": "Inhibition of Hydrogen peroxide (H2O2) production", "setting": "ThP1 cells; [8]", "result": "pos"},
      {"measurement": "Inhibition of Hydrogen peroxide (H2O2) production", "setting": "ThP1 cells; [9]", "result": "pos"},
      {"measurement": "Inhibition of Hydrogen peroxide (H2O2) production", "setting": "ThP1 cells; [10]", "result": "pos"},
      {"measurement": "Inhibition of Hydrogen peroxide (H2O2) production", "setting": "ThP1 cells; [11]", "result": "pos"}
    ]}
  ]
}
